{"source": "patent US20240252795A1", "about": "“INGESTIBLE DEVICE FOR DELIVERY OF THERAPEUTIC AGENT TO THE GASTROINTESTINAL TRACT” (BIORA THERAPEUTICS, INC., priority 2018, published 2024)", "key": {"[1]": {"assay": "Non-reducing SDS-PAGE protein profile of jet-dispensed adalimumab (drug structure)", "type": "physicochemical", "text": "The purpose of this study was to evaluate the effects that nozzle geometry and delivery pressure have on drug structure when the drug is dispensed from a jet delivery device using different delivery pressures and nozzle sizes. Structural changes in the jet-delivered drug could potentially result in compromised functioning of the drug in vitro.\nThe drug (adalimumab drug substance (DS)) was loaded into the simulated capsule jet delivery device and ejected using different pressures and nozzle geometries.\nThe resulting protein concentrations were obtained using an extinction coefficient of 1.4 and Gen5 version 3.03.14 program. The samples were then diluted and the protein profiles were analyzed using non-reducing SDS-PAGE. Protein banding patterns of the dispensed samples were compared to that of the unmanipulated drug and the drug artificially damaged (enzymatically degraded) via the papain in a commercial Fab fragmentation kit (Pierce™ Fab Preparation Kit).\nFor gel analysis, protein was mixed with non-reducing sample buffer. Samples were not heated. 5 μg of samples and controls were loaded per lane of a SDS-PAGE gel (4% Acrylamide-Bis stacking, 12% resolving; see Table 26). The gel was electrophoresed at 195 V and stained in R-250 Coomassie Blue dye."}, "[2]": {"assay": "Adalimumab plasma PK after ID administration via 4-nozzle jet delivery device", "type": "in vivo, female Yorkshire pigs (Sus scrofa domesticus)", "conditions": "for AUC0-10 (±SEM) / Tmax: 40 mg, N=4, plasma; for AUC0-10 Corrected for Dose (±SEM): N=4; for Bioavailability over IV (±SEM): vs Example 5 IV control; for Bioavailability over IV (±SEM) / Bioavailability over SC (±SEM): AUC corrected for dose used; for Bioavailability over SC (±SEM): vs Example 5 SC control", "experimental": "A total of 9 healthy female Yorkshire pigs (Sus scrofa domesticus) having a body weight of 24-30 kg were used in this study. […] Each dose group received test article via intraduodenal (ID) administration. The study design is shown below in Table 21.\nAnimals were housed two per cage and fasted for a minimum of 12 hours prior to dosing. Food was returned at 4 hours post-dose. Water was supplied ad libitum. The dosing was as follows: Dose day 1: group 1 (n=2), and group 2 (n=3); Dose day 2: group 2 (n=3), and group 1 (n=2).\nIntraduodenal (ID) administration was performed as follows.\nEach blood sample was collected from the pig jugular vein, or other suitable vessel via direct venipuncture, placed into a chilled tube containing K2-EDTA as the anticoagulant, and inverted several times to mix. Blood samples were kept on wet ice until centrifugation. […] Plasma was collected into pre-labeled polypropylene tubes and placed in a freezer set to maintain −60 to −80° C. prior to analysis.\nAll plasma samples were diluted by 1:100 dilution. Diluted samples were processed in duplicates and the mean Optical Density (O.D.) was measured using a SpectraMax plate reader is and utilizing SoftMax Pro software for analysis. The Lower Limit of Quantification (LLOQ) was calculated by adding 10× the standard deviation value of the blanks O.D. to the average of the blank standard O.D. values. […] The area under the concentration curve (AUC) was calculated with the trapezoidal rules.\nThe PK results were compared to a subset of data from Example 5. The bioavailability was determined by comparison with Example 5 control arms (SC and IV administration)."}, "[3]": {"biological_target": "TNFα (Homo sapiens, UniProt P01375)", "sequence (P01375 77-233 limits assumed)": "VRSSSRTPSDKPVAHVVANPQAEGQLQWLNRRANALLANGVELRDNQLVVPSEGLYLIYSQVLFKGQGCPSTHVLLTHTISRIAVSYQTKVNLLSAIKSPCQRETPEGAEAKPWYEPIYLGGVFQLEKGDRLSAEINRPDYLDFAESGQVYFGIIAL", "assay": "LOCI competitive inhibition assay of adalimumab binding to TNFα after jet dispensing", "conditions": "delivery pressures up to 300 psi, nozzle diameter down to 0.35 mm", "experimental": "The drug (adalimumab) was loaded into the ingestible device and fired through a nozzle with varying diameters at various pressure conditions.\nFIGS. 57A-57B illustrate the general principle of the assay.\nDrug binding was detected using Luminescent Oxygen Channeling (LOCI™)—a competitive binding assay. Signal was detected by comparing to a non-drug carrier control and an artificially damaged drug using a commercial FAB fragmentation kit.\nDrug function was determined through a competition binding assay comparing drug binding function for drug dispensed via standard delivery mechanism and drug delivered via the ingestible device with various pressures."}, "[4]": {"assay": "Adalimumab plasma PK after ID administration via endoscopic injection needle", "type": "in vivo, female Yorkshire pigs (Sus scrofa domesticus)", "conditions": "5 pigs in two studies", "experimental": "A total of 5 healthy female Yorkshire pigs (Sus scrofa domesticus) having a body weight of ˜25-40 kg were used in these studies, 3 in a first study and 2 in a second study. Each animal received test article via intraduodenal (ID) administration via an injection needle. The study design is shown below in Table 34.\nAnimals were housed one per cage and fasted for a minimum of 12 hours prior to dosing. Food was returned at 4 hours post-dose. Water was supplied ad libitum.\nIntraduodenal (ID) administration was performed as follows. […] Once it was confirmed that the endoscopic injection needle was placed in the correct region, approximately 0.5 mL of saline was injected within the lamina propria of the mucosa to create a small bleb in the mucosa. The formulation was then injected into the bleb and flushed with approximately 0.8 mL of saline. […]\nAll plasma samples were diluted by 1:100 dilution. Diluted samples were processed in duplicates and the mean Optical Density (O.D.) was measured using a SpectraMax plate reader and utilizing SoftMax Pro software for analysis. The Lower Limit of Quantification (LLOQ) was calculated by adding 10× the standard deviation value of the blanks O.D. to the average of the blank standard O.D. values. […] The area under the concentration curve (AUC) was calculated with the trapezoidal rules."}, "[5]": {"conditions": "Group 1: ID, 4 Nozzle device 320 PSIG"}, "[6]": {"conditions": "Group 2: ID, 4 Nozzle device 350 PSIG"}}, "data": [{"substance": "adalimumab", "values": [{"measurement": "protein banding pattern, non-reducing SDS-PAGE", "setting": "[1]; 5 μg per lane, jet-delivered samples versus unmanipulated drug and papain-degraded controls", "result": "same banding pattern as the unmanipulated drug"}, {"measurement": "structural changes after dispensing", "setting": "[1]; dispensing pressures and nozzle sizes employed", "result": "No structural changes were evident"}, {"measurement": "AUC0-10 (±SEM)", "setting": "[2]; [5]", "result": 23.831, "unit": "µg·days/mL"}, {"measurement": "Tmax", "setting": "[2]; [5]", "result": 24, "unit": "h"}, {"measurement": "AUC0-10 Corrected for Dose (±SEM)", "setting": "[2]; [5]", "result": 23.997, "unit": "µg·days/mL"}, {"measurement": "Bioavailability over IV (±SEM)", "setting": "[2]; [5]", "result": 19.560}, {"measurement": "Bioavailability over SC (±SEM)", "setting": "[2]; [5]", "result": 26.120}, {"measurement": "AUC0-10 (±SEM)", "setting": "[2]; [6]", "result": 14.603, "unit": "µg·days/mL"}, {"measurement": "Tmax", "setting": "[2]; [6]", "result": 24, "unit": "h"}, {"measurement": "AUC0-10 Corrected for Dose (±SEM)", "setting": "[2]; [6]", "result": 15.171, "unit": "µg·days/mL"}, {"measurement": "Bioavailability over IV (±SEM)", "setting": "[2]; [6]", "result": 12.367}, {"measurement": "Bioavailability over SC (±SEM)", "setting": "[2]; [6]", "result": 16.513}, {"measurement": "ability of the drug to bind to the target TNFα after jet delivery", "setting": "[3]", "result": "did not significantly inhibit the ability of the drug to bind to the target TNFα"}, {"measurement": "quantifiable levels in plasma", "setting": "[4]", "result": "one animal from the first study and one animal from the second study had quantifiable levels"}]}]}
